Assay results published in the DeepSol protein solubility set.

Test: soluble on expression in E. coli; label from the status in PepcDB or PDB records

Sequence	soluble on expression in E. coli
MHHHHHHHHHGGPISKILVANRSEIAIRVFRAANELGIKTVAIWAEEDKLALHRFKADESYQVGRGPHLARDLGPIESYLSIDEVIRVAKLSGADAIHPGYGLLSESPEFVDACNKAGIIFIGPKADTMRQLGNKVAARNLAISVGVPVVPATEPLPDDMAEVAKMAAAIGYPVMLKASWGGGGRGMRVIRSEADLAKEVTEAKREAMAAFGKDEVYLEKLVERARHVESQILGDTHGNVVHLFERDCSVQRRNQKVVERAPAPYLSEAQRQELAAYSLKIAGATNYIGAGTVEYLMDADTGKFYFIEVNPRIQVEHTVTEVVTGIDIVKAQIHILDGAAIGTPQSGVPNQEDIRLNGHALQCRVTTEDPEHNFIPDYGRITAYRSASGFGIRLDGGTSYSGAIITRYYDPLLVKVTAWAPNPLEAISRMDRALREFRIRGVATNLTFLEAIIGHPKFRDNSYTTRFIDTTPELFQQVKRQDRATKLLTYLADVTVNGHPEAKDRPKPLENAARPVVPYANGNGVKDGTKQLLDTLGPKKFGEWMRNEKRVLLTDTTMRDGHQSLLATRMRTYDIARIAGTYSHALPNLLSLECWGGATFDVSMRFLTEDPWERLALIREGAPNLLLQMLLRGANGVGYTNYPDNVVKYFVRQAAKGGIDLFRVFDCLNWVENMRVSMDAIAEENKLCEAAICYTGDILNSARPKYDLKYYTNLAVELEKAGAHIIAVKDMAGLLKPAAAKVLFKALREATGLPIHFHTHDTSGIAAATVLAAVEAGVDAVDAAMDALSGNTSQPCLGSIVEALSGSERDPGLDPAWIRRISFYWEAVRNQYAAFESDLKGPASEVYLHEMPGGQFTNLKEQARSLGLETRWHQVAQAYADANQMFGDIVKVTPSSKVVGDMALMMVSQDLTVADVVSPDREVSFPESVVSMLKGDLGQPPSGWPEALQKKALKGEKPYTVRPGSLLKEADLDAERKVIEKKLEREVSDFEFASYLMYPKVFTDFALASDTYGPVSVLPTPAYFYGLADGEELFADIEKGKTLVIVNQAVSATDSQGMVTVFFELNGQPRRIKVPDRAHGATGAAVRRKAEPGNAAHVGAPMPGVISRVFVSSGQAVNAGDVLVSIEAMKMETAIHAEKDGTIAEVLVKAGDQIDAKDLLAVYGG	soluble
MDLLVVVPHPDDESFGAGGALLLAKEAGLKTGVLTLTRGEAGRTLGLCPPKELPQVRVEELKRAAAVLQVDYLEVLDYPNALPEGAQGERGPATGRGLADHPEAVEAIRTRLLRLRPRFVLTFPPDGINGHPDHVAASRYAREAAQGLAQVVYLVRPDGPWPVTHRLRLPERVLARKLQAIAQHKTQALSVLKFLEMFPERLWTETFHLPGASGLREGPWW	soluble
MSLSRKNQELAKIFERMADILEFLGENPYRIRTYRRVANLISELQEDVEKAFYTRKLHHMPGIGESTLLKIEEFLKTGTIKKYEELRRMVPEDLLELLDAPGVGPKTLKIAYEQLGIRTKEEFIEALKKGKFNKIRGFGPVKALKILRGIELWEKSKERISLIEAYPMAQEVLKYMERIKDKYENISIAGSLRRMKETIGDIDILVSAKKENWKAIHEHFTKYPGLLEVLAKGETKSSIILDTGRQVDLRTVEPISWGAALQYFTGSKQHNIRIRDIAKEKGLKVNEYGVFKVDTEERIAGETEEGVYEVLGMQWIPPELREDWGEIELALEHKLPRLVELKDIKGDLHMHTNWSDGVNTLEEMVETAYKLGYQYIVIGDHSQSARVANGLDPERYKQQWKEIDRLNKEYNPKGFYILKGAEVDILPDGSLDLPDEVLEQFDFVVASVHSRFEQDNTERIIKAMENPYVNMIGHPTGKQYGYREGYPVNIEKLIQKAKETGTALELNTQRMDLSPENVRKCMEAGVYIGIVTDAHSARQLHLMFLGVGLARRGWATPDKVINTFDLEGLKEFVYKKRKNLAREGHHHHHH	soluble
MGSDKIHHHHHHMGSPYIQARLSQIGDLMSFGIIQLDYEEVLAKHYRRWIQPGDTVIDVGAHLGLHLSRFIELAGPTGQVIGFEPLPFAFDILSTQHACPTLTLNNVALAHEPGHAEFTFAQGSPGESGLRKRLYISPETVTPTLIPVKVDTLDMHTENLRSVDYIKIDIEGGEIGCLEGATRTIDKFRPLISTEYGYPSYSVYGLTKDSLFNFASSKNYVLFDIFLNRIDTRDEWHIVCDSICWDYFLVPAEKLDVFTERVARRAF	not soluble
SKCIPYSVLLKDLEMRNLRELEDLIIEAVYTDIIQGKLDQRNQLLEVDFCIGRDIRKKDINNIVKTLHEWCDGCEAVLLGIEQQVLRANQYKENHNRTQQQVEAEVTNIKKTLKATASSSAQEMEQQLAERECPPHAEQRQPTKKMSKVKGLVSSRH	soluble
MHIRRDQYMNEYVWETCEELDKKIADRVRLIRKRRSISQEKLSKISNVSLGSIKRFETTGQISLLSLTKIAVALNIADDLRNIFTEIPYNSIEEVINERR	not soluble
MKRSNTVRLVVSKEQHEVLKRLGIATAKCWNEVNWLRMKQYKEGKRVDFGITEKAVYEKYKSVLRVNAQQVARKNAEDWRSFFSLTREKKEGKLPSWFKPRPPGYWKDGRLIVIIRNDRYTVDERNRVVYLKDFNLSLKFKGRLKWHGKQGRLEIIYDEARKIWYAHIPVEVETEKVKEGIKASIDLGIVNLATVYVEDGSWYLFKGGSALSHYENYSKRITIVQKTLHRHRQRRSRRLKLLHEKRSRFLKHALNSMVRRIMEILREKNVGEVVVGYPKEIAKHHGNKLTVNFWNYSYIIKRLEDIGEELGIKVITVDEAYTSKTCSLCGEAHEDGRVKRGLFVCPRTRKAINADLNGAINILHIPESRGSEGNFHRGIGVIGLKTQPVTLSDLSKIKNHYNYSISDYTILHYIQPLEHHHHHH	soluble
VTRPRPPLGPAMAGAVDLSGIKQRAQQNAAASTDADRALSTPSGVTEITEANFEDEVIVRSDEVPVVVLLWSPRSEVCVDLLDTLSGLAAAAKGKWSLASVNVDVAPRVAQIFGVQAVPTVVALAAGQPISSFQGLQPADQLSRWVDSLLSATAGKLKGAASSEESTEVDPAVAQARQQLEDGDFVAARKSYQAILDANPGSVEAKAAIRQIEFLIRATAQRPDAVSVADSLSDDIDAAFAAADVQVLNQDVSAAFERLIALVRRTSGEERTRVRTRLIELFELFDPADPEVVAGRRNLANALY	not soluble
MKVTLPEFERAGVMVVGDVMLDRYWYGPTSRISPEAPVPVVKVNTIEERPGGAANVAMNIASLGANARLVGLTGIDDAARALSKSLADVNVKCDFVSVPTHPTITKLRVLSRNQQLIRLDFEEGFEGVDPQPLHERINQALSSIGALVLSDYAKGALASVQQMIQLARKAGVPVLIDPKGTDFERYRGATLLTPNLSEFEAVVGKCKTEEEIVERGMKLIADYELSALLVTRSEQGMSLLQPGKAPLHMPTQAQEVYDVTGAGDTVIGVLAATLAAGNSLEEACFFANAAAGVVVGKLGTSTVSPIELENAVRGRADTGFGVMTEEELKLAVAAARKRGEKVVMTNGVFDILHAGHVSYLANARKLGDRLIVAVNSDASTKRLKGDSRPVNPLEQRMIVLGALEAVDWVVSFEEDTPQRLIAGILPDLLVKGGDYKPEEIAGSKEVWANGGEVLVLNFEDGCSTTNIIKKIQQDKKG	soluble
MSWEGFKKAINRAGHSVIIKNVDKTIDKEYDMEERRYKVLQRAGEALQKEAKGFLDSLRAVTASQTTIAEVISNLYDDSKYVAGGGYNVGNYYLQCVQDFDSETVKQLDGPLRETVLDPITKFSTYFKEIEEAIKKRDHKKQDFDAAKAKVRRLVDKPAKDASKLPRAEKELSLAKDIFENLNNQLKTELPQLVSLRVPYFDPSFEALIKIQLRFCTDGYTRLAQIQQYLDQQSRDDYANGLLDTKIEELLGQMTSLDICALGIK	not soluble
MKTRINYAKASPEAFKAVMALENYVQSSGLEHRFIHLIKLRASIINGCAFCVDMHVKESRHDGLSEQWINLMSVWRESPVYTEQERALLGWVDAVTKIAETGAPDDAFETLRAHFSDEEIVKITVAIGAINTWNRIAVGFRSQHPVEAAAKAA	soluble
MKTIRTEEAVGLPLSHDITRIDYGKTKEVCFKKGHIVVQEDIPILLSLGKKHLFVSLDPAEIHEEEAATFLYNLLTDDSCQPSEVHEGKIVAKASTRGLLKVNREKLIALNEIEGLALSTKVTNIEVQKDEKVAAFRVIPLTISKSQLEKARQLSTSEPLISVKPFKKIRVGIVTTGSEVYTGLVEDAFYPVLKAKFSAYPLVTIVKQEIVDDQPQKITVAIKKMLAQGVDLIVCTGGMSVDPDDLTPLAIKQTGAEIVTHGTPVLPGSMFLLAYKGEQTIIGLPGGVLFSEKTVFDLLLPRLMAKEVIKKSEIIDLSYGGYL	not soluble
MEDSCVLRGVMINKDVTHPRMRRYIKNPRIVLLDSSLEYKKGESQTDIEITREEDFTRILQMEEEYIHQLCEDIIQLKPDVVITEKGISDLAQHYLMRANVTAIRRVRKTDNNRIARACGARIVSRPEELREDDVGTGAGLLEIKKIGDEYFTFITDCKDPKACTILLRGASHHHHHH	soluble
MGSDKIHHHHHHMVKTARRRGDDAVRGPGGVLVLGAASWNRMIHVETLPQGASATIFDARETQGAGSTGVGKAMGLAALGYQPTLHCALGRDDHGAQVIAACAGRGISLIVDEHDAATPHHLNIMDQLGGRYSLFLSNGAPDPPINEPRIAEQIAAADTIFLSLCASSKKILHLLEGARAEILLDLHDYDGANPWYEDFIACADVIQLSDVAVADPGAVARRLLSGRAHQVVVTKAGKGAEIVTADTSIDVPPCPADMVDSNGAGDAFSVALWHAQRTGQSGLDAGGFAAAAAACAIESADLFPVNVSAADIAGRVRAHPQDHSTGTASR	not soluble
RLIVGKHHWKIEKQPEWYVKAVRKTIAALPSGYAEAADWLDVTENALFNRLRADGDQIFPLGWAMVLQRAGGTHFIADAVAQSANGVFVSLPDVEDVDNADINQRLLEVIEQIGSYSKQIRSAIEDGVVEPHEKTAINDELYLSISKLQEHAALVYKIFCISESNDARECAAPGVVASIASGCGETNA	soluble
MEMKQKLLTDIELDVHELKLLMNTFSKEPTQTLSELLKRSILRMQERLEQLSEEISAVPVEASPSPVAEAESEAPIVEEQAPVIEEVECPVIEEKVVEENEATAPGEDEPVIVQEPQTVVEEAVIEEPVVEDEMEEKEAEDESEDDESLLIEEPKTAVLGESIKMAAGLRHSISLNDSFRFSREIFGGDPELMNRVIEQISVMSSYKTAVAFLASKVSVNEENEAMIDFLELLKKYFNQSA	soluble
ETIASELKAIGKELEDQKKEENIQIAKIAKEKFDFLSTFKVGPYDLIDEDIQMKIKRTLYSSLDYKKENIEKLKEILEILKKNSEHYNIIGRLIYHISWGIQFQIEQNLELIQNGVENLSQEESKSLLMQIKSNLEIKQRLKKTLNETLKVYNQNTQDNEKILAEHFNKYYKDFDTLKPAF	soluble
NLSELTPYILCSICKGYLIDATTITECLHTFCKSCIVRHFYYSNRCPKCNIVVHQTQPL	soluble
MGSDKIHHHHHHSESIIEEAVRKGEVLKGEIVPIDTALFRYAYRMRVQGDKAVILDLHNADYYYHVFTYPDFQYQSSFGKRGEGPGESIYAANIRFAGQDTVWVLDDGKGRMYQYSGIAGGKTPKQEKDILLDKRLFRSLDFDLKDASTVVIPDYSGENRFSWASLSSGELLRKSEQIPVSDPELLRESAPAVAQGWNSFVSFSPDKKILVSVTQFGDRLDIYSMASQKHIGELGGDGEPQFKVSPEGYGLPAGRICYYDVQVTDQYIYTIYDGRKFKDIMKLADAYQQGGKILRISTHEGDVVKTYVLDRPIAGIYVDEAAGMLFGLDVNADEQIVKFPLELE	not soluble
MRLLPLVAAATAAFLVVACSSPTPPRGVTVVNNFDAKRYLGTWYEIARFDHRFERGLEKVTATYSLRDDGGLNVINKGYNPDRGMWQQSEGKAYFTGAPTRAALKVSFFGPFYGGYNVIALDREYRHALVCGPDRDYLWILSRTPTISDEVKQEMLAVATREGFDVSKFIWVQQPGS	soluble
